Results on 1 substance are retold here after patent publication US20030175735.

The data set has as its system recombinant protein ACp5 (p5 cleavage site of the HIV protease inserted between amino acids 224 and 225 of the adenyl cyclase of B. pertussis).

Consider wild-type protease of the HIV virus, for which the cleavage in vitro entry was “The cleavage of ACp5 by the HIV protease was also shown in vitro”; the “phenotype on McConkey maltose medium of DHT1 bacteria cotransformed with pKACp5 and pUCVIH” value is given as “exhibit a Cya^- phenotype (white colonies on McConkey maltose medium) in the absence of protease inhibitors”.
